The assay deals with single antigen M1 peptide segment (monkeypox virus M1 protein) (Monkeypox virus isolate MPXV_USA_2022_MA001) (UniProt M1LBP0). In words: SPR. (In SPR one partner is held on a chip, and binding of the other changes the refractive index at the surface.)
Chain of UniProt M1LBP0 (M1LBP0 2-181 limits assumed): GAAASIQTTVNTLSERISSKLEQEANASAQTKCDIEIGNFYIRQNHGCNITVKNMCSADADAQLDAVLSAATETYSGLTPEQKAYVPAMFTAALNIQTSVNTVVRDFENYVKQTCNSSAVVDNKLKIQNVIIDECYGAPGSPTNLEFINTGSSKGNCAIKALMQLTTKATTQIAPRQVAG

As for neutralizing antibody 7D11, the Kd is 3.3 nM.

Usually Kd stands for a measure of binding affinity in units of concentration. Higher therefore signals a looser complex.
